Assay results reported in the supplement of paper PMC10567573.

B1: FCHO1 (parent)
chain: FSDPSQSDPETKDFWLNMAALTEA

Variants of: B1
Assay: protein stability index of a GFP-peptide fusion (GPS, HEK-293T) (PSI 1-6); higher = more stable
Conditions: c terminus: a fixed tail appended
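Note: lentivirally expressed fusions sorted by FACS into six bins by GFP to DsRed ratio, PSI derived from sequencing read proportions per bin multiplied by bin number.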

Compared with FSDPSQSDPETKSFWLNMAALTEA, FSDPSQSDPETKMFWLNMAALTEA is lower in protein stability index: 1.47 for the first, 1.43 for the second.

Compared with FSDPSQSDPETKQFWLNMAALTEA, FSDPSQSDPETKYFWLNMAALTEA is higher in protein stability index: 2.08 for the first, 2.25 for the second.

First: FSDPSQSDPETKRFWLNMAALTEA
Second: FSDPSQSDPETKHFWLNMAALTEA
The protein stability index of the first is lower: 1.97 for the first, 2.02 for the second.

Compared with FSDPSQSDPETKNFWLNMAALTEA, FSDPSQSDPETKKFWLNMAALTEA is higher in protein stability index: 1.27 for the first, 2.33 for the second.

Going from FSDPSQSDPETKGFWLNMAALTEA to FSDPSQSDPETKFFWLNMAALTEA, the protein stability index falls from 2.96 to 1.88.

Going from FSDPSQSDPETKEFWLNMAALTEA to FSDPSQSDPETKWFWLNMAALTEA, the protein stability index falls from 3.62 to 1.65.

FSDPSQSDPETKTFWLNMAALTEA and FSDPSQSDPETKPFWLNMAALTEA are the same in protein stability index: 2.37 for the first, 2.37 for the second.

Compared with FSDPSQSDPETKCFWLNMAALTEA, FSDPSQSDPETKIFWLNMAALTEA is lower in protein stability index: 1.77 for the first, 1.75 for the second.

Compared with FSDPSQSDPETKLFWLNMAALTEA, FSDPSQSDPETKVFWLNMAALTEA is lower in protein stability index: 1.82 for the first, 1.65 for the second.

Compared with FSDPSQSDPETKAFWLNMAALTEA, FSDPSQSDPETKDFWLPMAALTEA is lower in protein stability index: 2.09 for the first, 1.94 for the second.

Going from FSDPSQSDPETKDFWLVMAALTEA to FSDPSQSDPETKDFWLLMAALTEA, the protein stability index rises from 1.88 to 2.43.

Going from FSDPSQSDPETKDFWLQMAALTEA to FSDPSQSDPETKDFWLGMAALTEA, the protein stability index falls from 3.39 to 2.67.

Going from FSDPSQSDPETKDFWLMMAALTEA to FSDPSQSDPETKDFWLRMAALTEA, the protein stability index rises from 2.73 to 3.06.

Compared with FSDPSQSDPETKDFWLDMAALTEA, FSDPSQSDPETKDFWLYMAALTEA is higher in protein stability index: 1.85 for the first, 2.8 for the second.

Compared with FSDPSQSDPETKDFWLTMAALTEA, FSDPSQSDPETKDFWLCMAALTEA is lower in protein stability index: 3.03 for the first, 2.41 for the second.

First: FSDPSQSDPETKDFWLIMAALTEA
Second: FSDPSQSDPETKDFWLKMAALTEA
The protein stability index of the first is lower: 1.98 for the first, 2.91 for the second.

Compared with FSDPSQSDPETKDFWLHMAALTEA, FSDPSQSDPETKDFWLFMAALTEA is lower in protein stability index: 2.74 for the first, 1.82 for the second.

First: FSDPSQSDPETKDFWLAMAALTEA
Second: FSDPSQSDPETKDFWLEMAALTEA
The protein stability index of the first is lower: 2.56 for the first, 3.49 for the second.

FSDPSQSDPETKDFWLSMAALTEA and FSDPSQSDPETKDFWLWMAALTEA are the same in protein stability index: 2.49 for the first, 2.49 for the second.

First: FSDPSQSDPETQDFWLNMAALTEA
Second: FSDPSQSDPETTDFWLNMAALTEA
The protein stability index of the first is higher: 3.43 for the first, 3.15 for the second.

Going from FSDPSQSDPETWDFWLNMAALTEA to FSDPSQSDPETYDFWLNMAALTEA, the protein stability index rises from 2.52 to 2.97.

Compared with FSDPSQSDPETVDFWLNMAALTEA, FSDPSQSDPETRDFWLNMAALTEA is lower in protein stability index: 2.86 for the first, 2.65 for the second.

First: FSDPSQSDPETSDFWLNMAALTEA
Second: FSDPSQSDPETPDFWLNMAALTEA
The protein stability index of the first is higher: 3.26 for the first, 3.1 for the second.

Going from FSDPSQSDPETKDFWNNMAALTEA to FSDPSQSDPETKDFWTNMAALTEA, the protein stability index falls from 3.48 to 2.56.

Going from FSDPSQSDPETKDFWDNMAALTEA to FSDPSQSDPETKDFWGNMAALTEA, the protein stability index falls from 5.04 to 2.41.

Going from FSDPSQSDPETKDFWMNMAALTEA to FSDPSQSDPETKDFWSNMAALTEA, the protein stability index falls from 2.55 to 2.32.

Compared with FSDPSQSDPETKDFWHNMAALTEA, FSDPSQSDPETKDFWENMAALTEA is higher in protein stability index: 2.3 for the first, 4.87 for the second.

Going from FSDPSQSDPETKDFWWNMAALTEA to FSDPSQSDPETKDFWVNMAALTEA, the protein stability index falls from 2.31 to 2.22.

Compared with FSDPSQSDPETKDFWINMAALTEA, FSDPSQSDPETKDFWFNMAALTEA is higher in protein stability index: 2.32 for the first, 2.41 for the second.

Compared with FSDPSQSDPETKDFWCNMAALTEA, FSDPSQSDPETKDFWYNMAALTEA is higher in protein stability index: 2.1 for the first, 2.73 for the second.

Going from FSDPSQSDPETKDFWANMAALTEA to FSDPSQSDPETKDFWRNMAALTEA, the protein stability index falls from 2.87 to 2.21.

First: FSDPSQSDPETKDFWPNMAALTEA
Second: FSDPSQSDPETKDFWKNMAALTEA
The protein stability index of the first is higher: 4.08 for the first, 2.36 for the second.

Compared with FSDPSQSDPETKDFWQNMAALTEA, FSDPSQSDPETKDFWLNMDALTEA is lower in protein stability index: 3.59 for the first, 2.53 for the second.

Compared with FSDPSQSDPETKDFWLNMKALTEA, FSDPSQSDPETKDFWLNMSALTEA is lower in protein stability index: 2.78 for the first, 2.29 for the second.

First: FSDPSQSDPETKDFWLNMYALTEA
Second: FSDPSQSDPETKDFWLNMQALTEA
The protein stability index of the first is lower: 2.7 for the first, 3.02 for the second.

Going from FSDPSQSDPETKDFWLNMWALTEA to FSDPSQSDPETKDFWLNMCALTEA, the protein stability index rises from 2.09 to 2.23.

Going from FSDPSQSDPETKDFWLNMNALTEA to FSDPSQSDPETKDFWLNMGALTEA, the protein stability index falls from 2.41 to 2.01.

Going from FSDPSQSDPETKDFWLNMHALTEA to FSDPSQSDPETKDFWLNMRALTEA, the protein stability index rises from 1.96 to 3.21.

Going from FSDPSQSDPETKDFWLNMFALTEA to FSDPSQSDPETKDFWLNMVALTEA, the protein stability index rises from 2.18 to 2.25.

Compared with FSDPSQSDPETKDFWLNMEALTEA, FSDPSQSDPETKDFWLNMPALTEA is lower in protein stability index: 2.74 for the first, 2.7 for the second.

Compared with FSDPSQSDPETKDFWLNMLALTEA, FSDPSQSDPETKDFWLNMMALTEA is higher in protein stability index: 2.44 for the first, 2.54 for the second.

Going from FSDPSQSDPETKDFWLNMTALTEA to FSDPSQSDPETKDFWLNMIALTEA, the protein stability index rises from 1.79 to 2.47.

Going from FSDPSQSDPETKDFWLNMAAYTEA to FSDPSQSDPETKDFWLNMAAATEA, the protein stability index rises from 2.38 to 2.63.

Compared with FSDPSQSDPETKDFWLNMAAMTEA, FSDPSQSDPETKDFWLNMAACTEA is lower in protein stability index: 2.77 for the first, 2.4 for the second.

Compared with FSDPSQSDPETKDFWLNMAAVTEA, FSDPSQSDPETKDFWLNMAARTEA is higher in protein stability index: 2.58 for the first, 2.95 for the second.

Compared with FSDPSQSDPETKDFWLNMAAPTEA, FSDPSQSDPETKDFWLNMAAQTEA is higher in protein stability index: 2.32 for the first, 3.3 for the second.

Going from FSDPSQSDPETKDFWLNMAATTEA to FSDPSQSDPETKDFWLNMAANTEA, the protein stability index rises from 2.75 to 2.88.
